We go through two molecules from patent US20110182911A1 (published 2011).

Test [1] has as its target recombinant human BMP-4 (human) (UniProt P12644). The test is described as follows: cell-based or functional assay.
The target of test [2] is recombinant human BMP-2 (human, UniProt P12643 283-396). The test is described as follows: cell-based or functional assay.
recombinant human BMP-2, sequence (P12643 283-396 limits assumed): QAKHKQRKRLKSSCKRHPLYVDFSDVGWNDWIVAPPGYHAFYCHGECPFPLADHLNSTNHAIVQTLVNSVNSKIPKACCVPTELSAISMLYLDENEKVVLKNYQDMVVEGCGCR

recombinant human BMP-4 (human), sequence (P12644 293-408 limits assumed): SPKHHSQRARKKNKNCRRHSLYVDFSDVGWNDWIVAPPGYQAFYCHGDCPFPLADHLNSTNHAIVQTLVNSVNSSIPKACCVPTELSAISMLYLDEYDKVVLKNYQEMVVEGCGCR

For the molecule “bovine fetuin (from UniProt P12763 19-359)”, in test [1], the alkaline phosphatase (ALP) activity in C2C12 cells; molar ratio of antagonist to BMP at which the BMP-induced increase is completely inhibited (molar ratio (bAHSG:rhBMP-4)) was greater than 56800 and the alkaline phosphatase (ALP) activity in C2C12 cells; molar ratio of antagonist to BMP at which the BMP-induced increase is completely inhibited (molar ratio (fetuin:rhBMP-4)) was greater than 55000.

B1: recombinant mouse Noggin (other, UniProt P97466 28-232, looked up)
chain: QHYLHIRPAPSDNLPLVDLIEHPDPIFDPKEKDLNETLLRSLLGGHYDPGFMATSPPEDRPGGGGGPAGGAEDLAELDQLLRQRPSGAMPSEIKGLEFSEGLAQGKKQRLSKKLRRKLQMWLWSQTFCPVLYAWNDLGSRFWPRYVKVGSCFSKRSCSVPEGMVCKPSKSVHLTVLRWRCQRRGGQRCGWIPIQYPIISECKCSC
B1: in test [2], the “alkaline phosphatase (ALP) activity in C2C12 cells; molar ratio of antagonist to BMP at which the BMP-induced increase is completely inhibited” value is 1.1 molar ratio (rmNGN:rhBMP-2).
